Test results reported in ChEMBL document CHEMBL5046279, “Discovery of a Partial Glucokinase Activator Clinical Candidate: Diethyl ((3-(3-((5-(Azetidine-1-carbonyl)pyrazin-2-yl)oxy)-5-isopropoxybenzamido)-1H-pyrazol-1-yl)methyl)phosphonate (BMS-820132)” (J Med Chem, 2022).

Substrate: CCOP(=O)(Cc1csc(NC(=O)c2cc(Oc3ccc(S(C)(=O)=O)cc3)cc(O[C@@H](C)COC)c2)n1)OCC
Details: Homo sapiens; filed as activator
Description: Activation of human glucokinase assessed as decrease in glucose Km

B1: Hexokinase-4 (Homo sapiens), P35557 (protein)
chain: MLDDRARMEAAKKEKVEQILAEFQLQEEDLKKVMRRMQKEMDRGLRLETHEEASVKMLPTYVRSTPEGSEVGDFLSLDLGGTNFRVMLVKVGEGEEGQWSVKTKHQMYSIPEDAMTGTAEMLFDYISECISDFLDKHQMKHKKLPLGFTFSFPVRHEDIDKGILLNWTKGFKASGAEGNNVVGLLRDAIKRRGDFEMDVVAMVNDTVATMISCYYEDHQCEVGMIVGTGCNACYMEEMQNVELVEGDEGRMCVNTEWGAFGDSGELDEFLLEYDRLVDESSANPGQQLYEKLIGGKYMGELVRLVLLRLVDENLLFHGEASEQLRTRGAFETRFVSQVESDTGDRKQIYNILSTLGLRPSTTDCDIVRRACESVSTRAAHMCSAGLAGVINRMRESRSEDVMRITVGVDGSVYKLHPSFKERFHASVRRLTPSCEITFIESEEGSGRGAALVSAVACKKACMLGQ
Km: 2400 µM
